In the supplement of paper PMC9233669:
Variants at the floor of the assay were thinned out.

Experiments:
biotinyl-Trp-oxazolone = experiment: self-aminoacylation, catalytic enhancement (BWO) (fold over background); higher = more active; k-Seq, kA / k0A0; sequences stand for … in GGGAAUGGAUCCACAUCUACGAAUUC…UUCACUGCAGACUUGACGAAGCUG
Method in brief: (§1)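 Mutagenized RNA pools (0.43 μM; 21-nt variable region) were treated with 2–1250 μM of each biotinyl-aminoacyl-oxazolone. Conditions were 50 μL HEPES/NaCl/KCl/MgCl2/CaCl2 buffer, 5% acetonitrile, pH 6.9–7.0, room temperature, 90 minutes. Catalytic enhancement, the median kA relative to the uncatalyzed rate, was derived from streptavidin capture, qPCR and Illumina sequencing.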

biotinyl-Met-oxazolone = experiment: self-aminoacylation, catalytic enhancement (BMO) (fold over background); higher = more active; k-Seq, kA / k0A0; sequences stand for … in GGGAAUGGAUCCACAUCUACGAAUUC…UUCACUGCAGACUUGACGAAGCUG
Method in brief: as §1

biotinyl-Ile-oxazolone = experiment: self-aminoacylation, catalytic enhancement (BIO) (fold over background); higher = more active; k-Seq, kA / k0A0; sequences stand for … in GGGAAUGGAUCCACAUCUACGAAUUC…UUCACUGCAGACUUGACGAAGCUG
Method in brief: as §1

biotinyl-Phe-oxazolone = experiment: self-aminoacylation, catalytic enhancement (BFO) (fold over background); higher = more active; k-Seq, kA / k0A0; sequences stand for … in GGGAAUGGAUCCACAUCUACGAAUUC…UUCACUGCAGACUUGACGAAGCUG
Method in brief: as §1

biotinyl-Leu-oxazolone = experiment: self-aminoacylation, catalytic enhancement (BLO) (fold over background); higher = more active; k-Seq, kA / k0A0; sequences stand for … in GGGAAUGGAUCCACAUCUACGAAUUC…UUCACUGCAGACUUGACGAAGCUG
Method in brief: as §1

biotinyl-Val-oxazolone = experiment: self-aminoacylation, catalytic enhancement (BVO) (fold over background); higher = more active; k-Seq, kA / k0A0; sequences stand for … in GGGAAUGGAUCCACAUCUACGAAUUC…UUCACUGCAGACUUGACGAAGCUG
Method in brief: as §1

Sequence	self-aminoacylation (biotinyl-Trp-oxazolone)	self-aminoacylation (biotinyl-Met-oxazolone)	self-aminoacylation (biotinyl-Ile-oxazolone)	self-aminoacylation (biotinyl-Phe-oxazolone)	self-aminoacylation (biotinyl-Leu-oxazolone)	self-aminoacylation (biotinyl-Val-oxazolone)
CGACUUCAAACAAUCGGUCAG [Fam1A.1 aminoacylation ribozyme variant]	4.08	0.707	0.915	8.58	0.772	0.883
CGACUUCAAACAAUCGGUCGG [Fam1A.1 aminoacylation ribozyme variant]	5.43	1.99	2.47	9.34	2.68	2.08
CGACUUCAAACAGUCGGUCUG [Fam1A.1 aminoacylation ribozyme variant]	1.98	1.71	1.83	10	1.63	1.84
CGACUUCAAACGAUCGGUCUG [Fam1A.1 aminoacylation ribozyme variant]	2.1	1.31	1.05	1.8	1.41	1.13
CGACUUCACACAAUCGGUCUG [Fam1A.1 aminoacylation ribozyme variant]	1.01	0.934	1.05	1.07	1.23	1.14
CGACUUCUAACAAUCGGUCUG [Fam1A.1 aminoacylation ribozyme variant]	0.591	0.936	0.905	0.961	0.917	0.931
CGAUUUCAAACAAUCGGUCUG [Fam1A.1 aminoacylation ribozyme variant]	5.97	1.46	1.74	16.4	1.63	1.66
CGGUUUGCUAAUAGUCGCAAG [Fam3.1 aminoacylation ribozyme variant]	1.68	1.17	1.18	2.27	1.17	1.18
CUAAACUUCAAGCAAUCGGUC [Fam1B.1 aminoacylation ribozyme variant]	15.1	0.876	0.956	33.1	1.26	1.03
CUAAUUAAAACAAUCGGUCUG [Fam1A.1 aminoacylation ribozyme variant]	0.564	0.827	0.791	0.555	0.782	0.738
CUAAUUCAAACAAUCAGUCUG [Fam1A.1 aminoacylation ribozyme variant]	1.44	0.702	0.659	3.65	0.674	0.772
CUAAUUCAAACAAUCGGUCUU [Fam1A.1 aminoacylation ribozyme variant]	1.32	0.695	0.743	2.49	0.629	0.716
CUAAUUCAAACAAUCGGUGUG [Fam1A.1 aminoacylation ribozyme variant]	0.691	0.913	0.75	0.924	1.01	0.659
CUAAUUCAAACAAUGGGUCUG [Fam1A.1 aminoacylation ribozyme variant]	0.468	0.777	0.742	0.481	0.643	0.739
CUAAUUCAAACAAUUGGUCUG [Fam1A.1 aminoacylation ribozyme variant]	0.572	0.776	0.839	0.608	0.744	0.687
CUAAUUCACACAAUCGGUCUG [Fam1A.1 aminoacylation ribozyme variant]	0.598	0.874	0.912	0.759	0.85	0.771
CUACACCUAGGUCAUCGGGUG [Fam2.2 aminoacylation ribozyme variant]	2.08	2.27	1.72	3.13	2.12	1.72
CUACACCUCAAGCAAUCGGUC [Fam1B.1 aminoacylation ribozyme variant]	1.41	0.869	1.01	2.14	0.8	0.976
CUACACUUCAAACAAUCGGUC [Fam1B.1 aminoacylation ribozyme variant]	39	1.34	1.22	88.2	2.08	1.27
CUACACUUCAAGCAAUAGGUC [Fam1B.1 aminoacylation ribozyme variant]	0.506	0.44	0.542	1.06	0.527	0.585
CUACACUUCAAGCAAUCAGUC [Fam1B.1 aminoacylation ribozyme variant]	6.32	0.718	0.668	21	0.754	0.886
CUACACUUCAAGCAAUCGAUC [Fam1B.1 aminoacylation ribozyme variant]	0.769	0.404	0.527	2.02	0.458	0.649
CUACACUUCAAGCUAUCGGUC [Fam1B.1 aminoacylation ribozyme variant]	0.608	0.746	0.87	0.833	0.692	0.876
CUACACUUCAUGCAAUCGGUC [Fam1B.1 aminoacylation ribozyme variant]	0.496	0.623	0.707	0.689	0.516	0.693
CUACAGCAAACAAUCGGUCUG [Fam1A.1 aminoacylation ribozyme variant]	0.574	0.482	0.48	0.421	0.577	0.65
CUACAUCAAACAACCGGUCUG [Fam1A.1 aminoacylation ribozyme variant]	1.47	1.31	0.885	1.22	1.14	1.11

Sequence	self-aminoacylation (biotinyl-Trp-oxazolone)	self-aminoacylation (biotinyl-Met-oxazolone)	self-aminoacylation (biotinyl-Ile-oxazolone)	self-aminoacylation (biotinyl-Phe-oxazolone)	self-aminoacylation (biotinyl-Leu-oxazolone)	self-aminoacylation (biotinyl-Val-oxazolone)
CUACAUCAAACAAUCGGUCUC [Fam1A.1 aminoacylation ribozyme variant]	0.882	0.683	0.575	1.64	0.532	0.779
CUACAUCAAACAAUCGGUGUG [Fam1A.1 aminoacylation ribozyme variant]	0.626	1.03	0.722	0.672	1.16	0.803
CUACCGCAAACAAUCGGUCUG [Fam1A.1 aminoacylation ribozyme variant]	0.689	0.981	0.857	2.36	0.896	0.961
CUACCUCAAAAAAUCGGUCUG [Fam1A.1 aminoacylation ribozyme variant]	1.3	1.41	1.02	1.28	1.49	1.01
CUACCUCAAACAAUCAGUCUG [Fam1A.1 aminoacylation ribozyme variant]	0.702	0.588	0.649	1.74	0.671	0.647
CUACCUCAAACAAUCGGUCUU [Fam1A.1 aminoacylation ribozyme variant]	1.65	0.623	0.996	1.34	0.784	0.865
CUACCUCAAACAAUCGGUGUG [Fam1A.1 aminoacylation ribozyme variant]	0.845	0.952	1.19	0.583	2.02	1.11
CUACCUCAAACAAUUGGUCUG [Fam1A.1 aminoacylation ribozyme variant]	0.733	1.08	1.08	0.81	0.824	1.04
CUACGUCAAACAAUCCGUCUG [Fam1A.1 aminoacylation ribozyme variant]	1.18	1.43	1.25	2.75	0.974	1.24
CUACGUCAAACAAUCGGUCUC [Fam1A.1 aminoacylation ribozyme variant]	1.32	1.09	0.998	1.24	0.765	1.04
CUACGUCAAACUAUCGGUCUG [Fam1A.1 aminoacylation ribozyme variant]	1.58	1.95	1.58	5.88	1.72	1.76
CUACGUCAAGCAAUCGGUCUG [Fam1A.1 aminoacylation ribozyme variant]	1.17	1.39	1.63	1.88	1.47	1.72
CUACUACAAACAAUCGGUCAG [Fam1A.1 aminoacylation ribozyme variant]	0.537	0.547	0.561	0.636	0.414	0.646
CUACUACAAACAAUCUGUCUG [Fam1A.1 aminoacylation ribozyme variant]	0.45	0.624	0.787	0.733	0.647	0.835
CUACUACAAACAUUCGGUCUG [Fam1A.1 aminoacylation ribozyme variant]	1.18	1.23	1.34	1.33	1.01	1.38
CUACUACAAAGAAUCGGUCUG [Fam1A.1 aminoacylation ribozyme variant]	0.8	0.788	0.781	0.547	0.775	0.54
CUACUAGAAACAAUCGGUCUG [Fam1A.1 aminoacylation ribozyme variant]	0.625	0.687	0.673	0.401	0.619	0.639
CUACUCCAAACAAGCGGUCUG [Fam1A.1 aminoacylation ribozyme variant]	0.584	1.13	1.2	2.15	0.802	1.14
CUACUCCAAACAAUCGGUCUU [Fam1A.1 aminoacylation ribozyme variant]	1.2	0.803	0.864	1.74	0.868	0.958
CUACUCCAAACUAUCGGUCUG [Fam1A.1 aminoacylation ribozyme variant]	0.822	0.806	0.926	0.747	0.872	1.07
CUACUCCGAACAAUCGGUCUG [Fam1A.1 aminoacylation ribozyme variant]	0.806	0.668	0.847	0.826	0.889	0.812
CUACUGCAAACAACCGGUCUG [Fam1A.1 aminoacylation ribozyme variant]	0.804	0.762	1.02	2.5	0.953	0.836
CUACUGCAAACAAUCGUUCUG [Fam1A.1 aminoacylation ribozyme variant]	0.574	0.818	0.702	0.732	0.647	0.735
CUACUGCAAACAAUUGGUCUG [Fam1A.1 aminoacylation ribozyme variant]	0.956	0.966	1.19	1.18	0.823	1.07
CUACUGCAAACUAUCGGUCUG [Fam1A.1 aminoacylation ribozyme variant]	1.18	0.824	1.02	1.14	1.17	1.12
